Among the data in article PMC10397247 are interaction score values, retold here.

What all share (experiment): two-hybrid library CCNG1;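 further: natural log of median RNA to DNA barcode read ratio; higher means stronger binding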
In assay [1] the target is T1, 4H3298-bN.
T1 chain: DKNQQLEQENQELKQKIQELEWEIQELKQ

Assay [2] deals with T2, 4H626-bN.
T2 chain: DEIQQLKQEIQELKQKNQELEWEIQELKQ

Assay [3] deals with T3, 4H3277-bN.
T3 chain: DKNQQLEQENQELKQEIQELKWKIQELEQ

The target of assay [4] is T4, 4H584-bN.
T4 chain: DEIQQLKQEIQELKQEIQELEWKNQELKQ

Assay [5] addresses T5, 4H3638-bN.
T5 chain: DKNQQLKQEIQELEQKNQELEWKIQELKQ

Assay [6] concerns the target T6, 4H3974-bN.
T6 chain: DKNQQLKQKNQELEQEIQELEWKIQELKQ

The target of assay [7] is T7, 4H3414-bN.
T7 chain: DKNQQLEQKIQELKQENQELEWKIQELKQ

For assay [8], the target named is T8, 4H3817-bN.
T8 chain: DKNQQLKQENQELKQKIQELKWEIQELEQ

Assay [9] has as its target T9, 4H3613-bN.
T9 chain: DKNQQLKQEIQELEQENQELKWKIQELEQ

Assay [10] concerns the target T10, 4H906-bN.
T10 chain: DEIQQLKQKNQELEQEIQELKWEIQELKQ

Assay [11] addresses T11, 4H1985-bN.
T11 chain: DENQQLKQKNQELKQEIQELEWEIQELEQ

For assay [12], the target named is T12, 4H3172-bN.
T12 chain: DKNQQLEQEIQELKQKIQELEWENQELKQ

The target in assay [13] is T13, 4H850-bN.
T13 chain: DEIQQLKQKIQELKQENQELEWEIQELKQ

The target in assay [14] is T14, 4H3628-bN.
T14 chain: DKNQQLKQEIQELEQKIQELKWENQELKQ

Assay [15] addresses T15, 4H3129-bN.
T15 chain: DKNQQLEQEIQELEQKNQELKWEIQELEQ

The target of assay [16] is T16, 4H3497-bN.
T16 chain: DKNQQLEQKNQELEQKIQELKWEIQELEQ

Assay [17] addresses T17, 4H3175-bN.
T17 chain: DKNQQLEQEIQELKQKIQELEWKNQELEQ

Assay [18] addresses T18, 4H3858-bN.
T18 chain: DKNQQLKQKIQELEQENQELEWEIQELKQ

The target in assay [19] is T19, 4H3926-bN.
T19 chain: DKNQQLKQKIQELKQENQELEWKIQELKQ

The target in assay [20] is T20, 4H570-bN.
T20 chain: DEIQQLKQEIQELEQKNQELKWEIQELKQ

Assay [21] has as its target T21, 4H3631-bN.
T21 chain: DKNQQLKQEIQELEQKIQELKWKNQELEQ

The target in assay [22] is T22, 4H3162-bN.
T22 chain: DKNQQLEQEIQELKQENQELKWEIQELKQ

For assay [23], the target named is T23, 4H3462-bN.
T23 chain: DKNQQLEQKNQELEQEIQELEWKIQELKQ

The target of assay [24] is T24, 4H619-bN.
T24 chain: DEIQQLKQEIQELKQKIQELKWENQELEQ

The target in assay [25] is T25, 4H591-bN.
T25 chain: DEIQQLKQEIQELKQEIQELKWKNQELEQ

The target of assay [26] is T26, 4H2697-bN.
T26 chain: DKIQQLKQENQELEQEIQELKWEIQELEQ

Assay [27] concerns the target T27, 4H953-bA.
T27 chain: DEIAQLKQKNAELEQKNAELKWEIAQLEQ

The target in assay [28] is T28, 4H1899-bN.
T28 chain: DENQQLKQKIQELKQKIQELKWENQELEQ

The target in assay [29] is T29, 4H717-bH.
T29 chain: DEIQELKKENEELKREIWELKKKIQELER

Assay [30] addresses T30, O8-bN.
T30 chain: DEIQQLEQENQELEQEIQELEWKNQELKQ

Regarding DENQQLKQKNQELKQEIQELEWEIQELEQ [4H1985-bN], the interaction score was -0.626 in [1]; -0.889 in assay [2]; -1.75 in [3]; -1.72 in assay [4]; -1.17 in assay [5]; -1.17 in assay [6]. Also, the interaction score in assay [7] was -1.17; in assay [8] it was -0.872; in [9], -1.86; in [10] it was -1.03; in assay [11], -2.05; in assay [12], -0.909. Further, the interaction score was -1.6 in [13]; -1.17 in [14]; -2.06 in [15]; -1.28 in assay [16]; -2.05 in assay [17]; -0.987 in [18]. The interaction score in assay [19] was -1.25; in assay [20], -1.42; in assay [21] it was -1.53; in assay [22] it was -1.41; in [23], -1.4; in assay [24], -1.93. In addition, the interaction score in assay [25] was -0.871.

Turning to DENQQLKQKIQELKQKIQELKWENQELEQ [4H1899-bN], the interaction score in assay [1] is -0.744; in assay [2] it was -0.642; in [3], -1.21; in [6], -0.336; in assay [26], -1.18; in assay [8], -0.969. The interaction score in assay [9] is 0.0619; in assay [10], -0.654; in assay [11], -0.785; in assay [27], -1.81; in [13], -1.55; in assay [14] it was 0.469. For the same molecule, the interaction score was -1.24 in assay [28]; -0.282 in assay [29]; -0.658 in assay [16]; -0.0673 in [17]; -0.633 in assay [18]; -0.429 in [19]. In addition, the interaction score in assay [20] was -1; in assay [22] it was -0.75; in [23], -2.27; in assay [25], -1.42.

With DKNQQLEQEIQELKQENQELKWEIQELKQ [4H3162-bN], the interaction score was -0.102 in [1]; -1.41 in assay [2]; -0.514 in [3]; -3.16 in assay [30]; -1.7 in assay [9]; -0.289 in assay [10]. Also, the interaction score is -0.668 in assay [14]; -0.903 in [16]; -0.427 in assay [17]; 0.163 in [19]; 0.979 in assay [22]; 0.241 in [23]. Further, the interaction score in assay [25] was -1.33.
